Measured values from patent US20100120688A1 (University of Pennsylvania, published 2010).
Bridge positions count the residues as written; N and C are the ends. Ends that are not written are not given here.

Columns and labels:
[1] = target: T1, ErbB1 extracellular domain (recombinant, soluble) (UniProt P00533 25-645, limits assumed); test: SPR; peptide 10 µM preinjected over immobilized ErbB1, then ErbB3 (300 nM) with HRGβ1 (5 µM); competitor: erbB3-HRGβ1
T1 construct: extracellular domain; also called erbB1 ectodomain; EGFr

[2] = target: T2, ErbB2 extracellular domain (recombinant) (UniProt P04626 23-652, limits assumed); test: SPR; peptide 10 µM preinjected over immobilized ErbB2, then ErbB3 (300 nM) with HRGβ1 (5 µM); competitor: erbB3-HRGβ1
T2 construct: extracellular domain; also called whole ectodomain of erbB2; full-size erbB2 ectodomain

[3] = target: T3, ErbB3 extracellular domain (recombinant, soluble) (UniProt P21860 20-643, limits assumed); test: SPR (Biacore 3000), peptide injected over immobilized receptor extracellular domain
T3 construct: extracellular domain; also called ectodomain of erbB3

[4] = target: T2, ErbB2 extracellular domain (recombinant); test: as above
[5] = target: T1, ErbB1 extracellular domain …; test: as above
[6] = target: T3, ErbB3 extracellular domain …; test: SPR; peptide 10 µM preinjected over immobilized ErbB3, then ErbB3 (300 nM) with HRGβ1 (5 µM); competitor: erbB3-HRGβ1
[7] = target: TNF receptor (immobilized, control); test: SPR (Biacore 3000), peptide injected over immobilized TNF receptor (control)
[8] = target: T4, erbB2 receptor, native full-length, on transfected 32D cells (32D-E2/E4 and 32D-E2/E3) (UniProt P04626 23-1255, limits assumed); test: inhibition of heregulin-induced erbB2-erbB4 dimerization on 32D-E2/E4 cells, chemical cross-linking and immunoblot, dose dependence; 32D-E2/E4 cells; heregulin-induced erbB2-erbB4 heteromerization
T4 construct: whole, on cells

[9] = target: T3, ErbB3 extracellular domain …; test: SPR (Biacore 3000), control peptide injected over immobilized receptor extracellular domain
[10] = target: T2, ErbB2 extracellular domain (recombinant); test: as above
[11] = target: T1, ErbB1 extracellular domain …; test: as above
[12] = target: TNF receptor (immobilized, control); test: SPR (Biacore 3000), control peptide injected over immobilized TNF receptor (control)
[13] = target: T1, ErbB1 extracellular domain …; test: SPR (Biacore), global fit to the 1:1 Langmuir model; receptor taken as erbB1 by the KD of 0.21 µM
[14] = target: T5, erbB2-SbdIV (recombinantly expressed subdomain IV of erbB2, GST fusion protein) (UniProt P04626 511-652); test: SPR (Biacore), peptide over immobilized erbB2-SbdIV
T5 construct: domain: subdomain IV; Expressed in E. coli BL-21 (DE3) and eluted from glutathione sepharose; no removal of GST is told; also called erbB2-Sbd W; not shown: glutathione S-transferase of the pGEX-5X-3 vector (N-terminal fusion partner)

T3 sequence (P21860 20-643 limits assumed): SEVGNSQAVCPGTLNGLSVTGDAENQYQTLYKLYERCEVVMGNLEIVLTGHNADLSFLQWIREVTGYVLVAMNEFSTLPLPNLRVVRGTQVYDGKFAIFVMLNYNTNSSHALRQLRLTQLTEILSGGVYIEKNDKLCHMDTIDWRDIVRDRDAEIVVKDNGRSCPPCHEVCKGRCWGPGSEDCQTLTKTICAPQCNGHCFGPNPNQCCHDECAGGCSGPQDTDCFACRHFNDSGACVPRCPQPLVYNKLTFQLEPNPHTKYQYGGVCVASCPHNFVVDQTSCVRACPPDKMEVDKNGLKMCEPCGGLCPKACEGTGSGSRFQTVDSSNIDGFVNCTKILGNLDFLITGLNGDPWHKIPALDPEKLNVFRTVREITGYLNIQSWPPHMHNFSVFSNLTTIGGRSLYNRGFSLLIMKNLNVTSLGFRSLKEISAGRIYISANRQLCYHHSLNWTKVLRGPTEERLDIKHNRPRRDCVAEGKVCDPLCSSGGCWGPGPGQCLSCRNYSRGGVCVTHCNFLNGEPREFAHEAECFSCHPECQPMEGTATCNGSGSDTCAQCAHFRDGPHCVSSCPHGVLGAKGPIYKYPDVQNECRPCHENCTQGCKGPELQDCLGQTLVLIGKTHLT

YCLVWKYADAGCY (disulfide 2-12 (inferred)) [B1-S22-ALG (derived from erbB1)]
Percent Inhibition [1]: 65.2%
Percent Inhibition [2]: 71.4%
Kd [3]: 0.288 µM
Kd [4]: 0.371 µM
Kd [5]: 0.449 µM
Percent Inhibition [6]: 75.1%
Kd [7]: > 1000 µM

YCFPDEEGACY (disulfide 2-10 (inferred)) [B2-S22-AFA (derived from erbB2)]
Percent Inhibition [1]: 78.4%
Percent Inhibition [2]: 82.5%
IC50 [8]: 0.8 µM
Kd [3]: 0.429 µM
Kd [4]: 0.302 µM
Kd [5]: 0.407 µM
Percent Inhibition [6]: 61.7%
Kd [7]: > 1000 µM

YCPIYKYPDVQCY (disulfide 2-12 (inferred)) [B3-S22-APQ (derived from erbB3)]
Percent Inhibition [1]: 69%
Percent Inhibition [2]: 58.1%
Kd [3]: 1.07 µM
Kd [4]: 0.549 µM
Kd [5]: 0.472 µM
Percent Inhibition [6]: 32.4%
Kd [7]: > 1000 µM

YCFIFKYADPDCY (disulfide 2-12 (inferred)) [B4-S22-AFD (derived from erbB4)]
Percent Inhibition [1]: 60.3%
Percent Inhibition [2]: 54.2%
Kd [3]: 0.394 µM
Kd [4]: 0.639 µM
Kd [5]: 0.583 µM
Percent Inhibition [6]: 72.8%
Kd [7]: > 1000 µM

FCYIGEVEDQCY (disulfide 2-11 (inferred), also called control peptide) [CD4-G (CD4 receptor-derived cyclic peptide, negative control)]
Kd [9]: > 1000 µM
Kd [10]: > 1000 µM
Kd [11]: > 1000 µM
Kd [12]: > 1000 µM

YCPIWKFPDEECY (disulfide 2-12 (inferred)) [B2-S22-APE (derived from erbB2)]
Percent Inhibition [1]: 80.3%
Percent Inhibition [2]: 51.1%
koff [13]: 0.000685 s⁻¹
kon [13]: 3240 M⁻¹ s⁻¹
Kd [3]: 1.4 µM
Kd [4]: 1.53 µM
Kd [5]: 0.21 µM
Percent Inhibition [6]: 42.7%
Kd [14]: 1.89 µM
koff [14]: 0.00307 s⁻¹
kon [14]: 1620 M⁻¹ s⁻¹
Kd [7]: > 1000 µM
